Measurements as given in paper PMC5267525, “Sec3 promotes the initial binary t-SNARE complex assembly and membrane fusion” (Nature Communications, 2017).

B1: His6-Sso2 (cytosolic domain, a.a. 1–270) [yeast] / GST-tagged Sec9 C-terminal SNARE domain (a.a. 414–651) [yeast] (parent)
chain 1: MSNANPYENNNPYAENYEMQEDLNNAPTGHSDGSDDFVAFMNKINSINANLSRYENIINQIDAQHKDLLTQVSEEQEMELRRSLDDYISQATDLQYQLKADIKDAQRDGLHDSNKQAQAENCRQKFLKLIQDYRIIDSNYKEESKEQAKRQYTIIQPEATDEEVEAAINDVNGQQIFSQALLNANRRGEAKTALAEVQARHQELLKLEKTMAELTQLFNDMEELVIEQQENVDVIDKNVEDAQQDVEQGVGHTNKAVKSARKARKNKIRC
chain 2: EEARQQQEEDEAVDEIKQEIKFTKQSSVASTRNTLKMAQDAERAGMNTLGMLGHQSEQLNNVEGNLDLMKVQNKVADEKVAELKKLNRSILAVHVSNPFNSKRRRREREEQLKNRKIEEKLMREQTSQQLSQSTQRIEGAMNANNNISEVRERYQRKNVLEKAKRYQFENDEEDDEMELEIDRNLDQIQQVSNRLKKMALTTGKELDSQQKRLNNIEESTDDLDINLHMNTNRLAGIR

Variants of: B1
Test: GST pull-down time course (SDS-PAGE, Coomassie blue staining, band quantification)
Settings: with GST-tagged Sec9 C-terminal SNARE domain (a.a. 414–651) [yeast]; time point 5 min; parent: 0; read off a plot

response [%] | Variant
34 | chain 1 D170G V171S N172S Q174G

Same assay, conditions: with GST-tagged Sec9 C-terminal SNARE domain (a.a. 414–651) [yeast]; time point 10 min; parent: 9; read off a plot

response [%] | Variant
67 | chain 1 D170G V171S N172S Q174G

Same assay, conditions: with GST-tagged Sec9 C-terminal SNARE domain (a.a. 414–651) [yeast]; time point 20 min; parent: 32; read off a plot

response [%] | Variant
79 | chain 1 D170G V171S N172S Q174G

Same assay, conditions: with GST-tagged Sec9 C-terminal SNARE domain (a.a. 414–651) [yeast]; time point 40 min; parent: 29; read off a plot

response [%] | Variant
100 | chain 1 D170G V171S N172S Q174G

Same assay, conditions: with GST-tagged Sec9 C-terminal SNARE domain (a.a. 414–651) [yeast]; time point 70 min; parent: 48; read off a plot

response [%] | Variant
92 | chain 1 D170G V171S N172S Q174G

Same assay, conditions: with GST-tagged Sec9 C-terminal SNARE domain (a.a. 414–651) [yeast]; time point 110 min; parent: 72; read off a plot

response [%] | Variant
96 | chain 1 D170G V171S N172S Q174G

Same assay, conditions: with GST-tagged Sec9 C-terminal SNARE domain (a.a. 414–651) [yeast]; time point 170 min; read off a plot

response [%] | Variant
96 | chain 1 D170G V171S N172S Q174G

Same assay, conditions: with GST-tagged Sec9 C-terminal SNARE domain (a.a. 414–651) [yeast]; time point 240 min; parent: 100; read off a plot

response [%] | Variant
100 | chain 1 D170G V171S N172S Q174G
